How the values were obtained:
[1] = target: MBP:RGA5_HMAm1m2 (rice (Oryza sativa)) (UniProt F7J0N2); experiment: SPR; […] (single-cycle kinetics, […]; 25 °C; 20 mM Tris pH 8, 150 mM NaCl, 0.5 mM DTT; […]
the engineered RGA5_HMAs = experiment: as above
[2] = target: MBP:RGA5_HMA (wild-type HMA domain of RGA5 fused to maltose-binding protein) (rice (Oryza sativa)) (UniProt F7J0N2); experiment: SPR; single-cycle kinetic titration, Biacore T200, 25 °C; […]; 20 mM Tris pH 8, 150 mM NaCl, 0.5 mM DTT, 0.05% P20; steady-state model

Substance | Kd [1] | further results
6×His-tagged AVR1-CO39 (natural protein) | 6.3 µM | –
6×His-tagged AVR-Pia (natural protein) | 5.9 µM | –
6×His-tagged AVR-PikD (from UniProt C4B8B8 22-113) (natural protein) | – | Kd (the engineered RGA5_HMAs): 0.0005 to 0.0016 µM
AVR-PikD (dSP-AVR-PikD, His-tagged) (natural protein) | – | Kd [2]: 8.32 µM

From PMC8938504
